Assays:
[1] = molecular target: T1, GthCol (Geobacillus thermoglucosidasius C-terminal Colicin DNase domain, C36A, H78A, engineered) (Geobacillus thermoglucosidasius); assay: SPR Biacore T200, 37 C, single cycle kinetics; details: remark: other sources report otherwise
[2] = molecular target: T1, GthCol (Geobacillus thermoglucosidasius …); assay: SPR Biacore T200, 37 C, single cycle kinetics; […]; details: remark: other sources report otherwise

B1: E. coli IM-7, singly biotinylated, Q03708 1-87 (protein)
chain: MELKNSISDYTEAEFVQLLKEIEKENVAATDDVLDVLLEHFVKITEHPDGTDLIYYPSDNRDDSPEGIVKEIKEWRAANGKPGFKQG
Binder B1 has a complex half-life t/2-diss [1] of 126 min, a Kd [2] of 0.074 nM and an MR (Molar Ratio, binding stoichiometry) [2] of 1.1. For the same binder, the koff [2] was 9.2e-05 s⁻¹ and the kon [2] was 1.2e+06 M⁻¹ s⁻¹.

— patent US20240140995A1
